# Laboratory results reported in patent US20260241049A1, “Radiopharmaceutical Compositions Targeting Glypican-3 and Uses Thereof” (RayzeBio, Inc., priority 2023, published 2026).
# Starred links: 1 amine or outer side, 2 acyl side, 3 side chain; linkers in the order of their positions; H or OH if unused. Positions of bridges follow the written chain, without caps; N, C: chain ends. Non-standard residues stand in square brackets, D forms with d. Primed or numbered codes have the meaning given here. MeKCOpipzaa″ = (2S)-6-{[4-(carboxymethyl)piperazine-1-carbonyl]amino}-2-(methylamino)hexanoic acid, CN([C@@H](CCCCNC(=O)N1CCN(CC(=O)[*:3])CC1)C(=O)[*:2])[*:1]; MeDapCOpipzaa = 3-(4-(carboxymethyl)piperazine-1-carboxamido)-2-(methylamino)propanoic acid, CN([C@@H](CNC(=O)N1CCN(CC(=O)[*:3])CC1)C(=O)[*:2])[*:1]; MeKCOpipzaa = N-alpha-methyl-N6-[4-(carboxymethyl)piperazine-1-carbonyl]-L-lysine, CN([C@@H](CCCCNC(=O)N1CCN(CC(=O)[*:3])CC1)C(=O)[*:2])[*:1]; W5N = 2-amino-3-(1H-pyrrolo[3,2-c]pyridin-3-yl)propanoic acid (5-aza-tryptophan), O=C([C@H](Cc1c[nH]c2ccncc12)N[*:1])[*:2]; 3Py6NHaa = 2-amino-3-(6-((carboxymethyl)amino)pyridin-3-yl)propanoic acid, O=C([C@H](Cc1ccc(NCC(=O)[*:3])nc1)N[*:1])[*:2]; F4aao = 4-(carboxymethoxy)-L-phenylalanine, O=C([C@H](Cc1ccc(OCC(=O)[*:3])cc1)N[*:1])[*:2]; MeHseMe = N-methyl-O-methyl-L-homoserine, COCC[C@@H](C(=O)[*:2])N(C)[*:1]; Thr(Me)(3) = TMe, O-methyl-L-threonine, CO[C@H](C)[C@H](N[*:1])C(=O)[*:2]; Thr(Me)″ = TMe = O-methyl-L-threonine, CO[C@H](C)[C@H](N[*:1])C(=O)[*:2]; NMeAla(isoquinolin-7-yl) = CN[C@@H](Cc1ccc2ccncc2c1)C(=O)O; SulfoCy5(3) = sulfo-Cyanine5 hexanoyl dye on the lysine NZ; 3Pal(6-Ph) = N[C@@H](Cc1ccc(-c2ccccc2)nc1)C(=O)O; Phe(4-COOH) = N[C@@H](Cc1ccc(C(=O)O)cc1)C(=O)O; S3REt = (3R)-2-amino-3-hydroxypentanoic acid; NMe2Nal = CN[C@@H](Cc1ccc2ccccc2c1)C(=O)O; AEF = NCCOc1ccc(C[C@H](N)C(=O)O)cc1; NMeI = CC[C@H](C)[C@H](NC)C(=O)O; NMeQ = CN[C@@H](CCC(N)=O)C(=O)O; NMeK = CN[C@@H](CCCCN)C(=O)O; NMeC = CN[C@@H](CS)C(=O)O; NMeA = CN[C@@H](C)C(=O)O
# Molecular target: T1, Human Glypican3-Fc (ACRO Biosystems, GP3-H5258) (human, UniProt P51654 25-559)
# T1 construct: Bought fusion protein, captured in Methods B-2, B-3 and B-4; Catalogue number is printed only in Method B-2; not shown: Fc part of the bought fusion
# Experiment: SPR (Biacore T200), Method B-3: Glypican3-Fc captured on Protein A chip, peptide as analyte
# Procedure: A Protein A sensor chip (Cytiva) was inserted into a Biacore T200 (Cytiva), priming was performed three times with a running buffer: HBS-P+, pH 7.4 (Cytiva), and equilibration was carried out at a flow rate of 30 μL/min. Glypican3-Fc was allowed to react for 60 seconds at a flow rate of 10 μL/min. After capturing human Glypican3-Fe, a peptide solution prepared to 10 mM in DMSO solution was diluted with a running buffer to a final concentration of 10 μM. […] Using the above samples, peptide kinetics for Glypican3 was obtained by SPR measurement. Kinetics evaluation of Glypican3 was performed by SPR measurements at a flow rate of 10 LL/min, setting the association time to 120 seconds and the disassociation time to 600 seconds.
# The obtained data by Method B-1, Method B-2, Method B-3 and Method B-4 were analyzed by follow. Single Cycle Kinetics was used as the kinetics evaluation model, and curve fitting was performed using Biacore T200 Evaluation Software Version 3.0 (Cytiva).
row,Binder,Kd [nM]
1,KQDQFTIFFGXC (biotin-PEG12c conjugate of the peptide of SEQ ID No. 35 (MeK-MeQ-D-MeQ-F4COO-TMe-I-F4aao-MeNal27N-G-3Py6Ph-MeC-NH2); site of attachment shown only in a drawing; thioether ring from N-terminal acetyl to MeC12) [PLB-35],3.63
2,{CH2CO}-[NMeK](SulfoCy5(3))[NMeI]D[NMeQ][Phe(4-COOH)]IIY[NMeAla(isoquinolin-7-yl)]G[3Pal(6-Ph)][NMeC]-NH2 (thioether N-12) [PLD-1],0.32
3,{CH2CO}-[MeKCOpipzaa″][MeHseMe]D[NMeQ][Phe(4-COOH)][S3REt]IY[NMeAla(isoquinolin-7-yl)]G[3Pal(6-Ph)][NMeC]-NH2 (thioether N-12) [Macrocyclic peptide of Example 2-25 (SEQ ID No. 59)],6.6
4,{CH2CO}-[NMeK][NMeI]D[NMeQ][Phe(4-COOH)][Thr(Me)(3)]I[F4aao][NMeAla(isoquinolin-7-yl)]G[3Pal(6-Ph)][NMeC]-NH2 (thioether N-12; SMILES CC[C@H](C)[C@@H]1NC(=O)[C@H]([C@@H](C)OC)NC(=O)[C@H](Cc2ccc(C(=O)O)cc2)NC(=O)[C@H](CCC(N)=O)N(C)C(=O)[C@H](CC(=O)O)NC(=O)[C@H]([C@@H](C)CC)N(C)C(=O)[C@H](CCCCN)N(C)C(=O)CSC[C@@H](C(N)=O)N(C)C(=O)[C@H](Cc2ccc(-c3ccccc3)nc2)NC(=O)CNC(=O)[C@H](Cc2ccc3ccncc3c2)N(C)C(=O)[C@H](Cc2ccc(OCC(=O)O)cc2)NC1=O) [Macrocyclic peptide of Example 2-26 (SEQ ID No. 30)],0.3
5,{CH2CO}-[NMeA][MeHseMe]D[NMeQ][Phe(4-COOH)][Thr(Me)″]I[AEF][NMe2Nal]G[3Pal(6-Ph)][NMeC]-NH2 (thioether N-12) [Macrocyclic peptide of Example 2-28 (SEQ ID No. 44)],0.3
6,{CH2CO}-[NMeK][MeKCOpipzaa]D[MeDapCOpipzaa][Phe(4-COOH)][Thr(Me)″]I[F4aao][NMeAla(isoquinolin-7-yl)]G[3Pal(6-Ph)][NMeC]-NH2 (thioether N-12) [Macrocyclic peptide of Example 2-29 (SEQ ID No. 46)],1
7,{CH2CO}-[NMeK][MeKCOpipzaa]D[MeDapCOpipzaa][3Py6NHaa][Thr(Me)″]I[F4aao][NMeAla(isoquinolin-7-yl)]G[3Pal(6-Ph)][NMeC]-NH2 (thioether N-12) [Macrocyclic peptide of Example 2-30 (SEQ ID No. 47)],6.6
8,KKDKFTIFFGXC (not fully specified; MeK-MeKCOpipzaa-D-MeKCOpipzaa-F4COO-TMe-I-F4aaopipzaa-MeNal27N-G-3Py6Ph-MeC-NH2; thioether ring from N-terminal acetyl to MeC12) [Macrocyclic peptide of Example 2-32 (SEQ ID No. 49)],1.8
9,KSDXFTIXFGXC (not fully specified; MeKCOpipzaa-MeHseMe-D-MeDapCOpipzaa-F4COO-TMe-I-Yae-MeNal27N-G-3Py6Ph-MeC-NH2; thioether ring from N-terminal acetyl to MeC12) [Macrocyclic peptide of Example 2-38 (SEQ ID No. 55)],1.8
10,"ASDYIIYFGXC (not fully specified; MeA-S-(position 3 absent)-D-Y-I-I-Y-MeNal2-G-3Py6Ph-MeC-NH2; thioether ring from N-terminal acetyl to MeC, 11 residues) [Macrocyclic peptide of Example 2-39 (SEQ ID No. 67)]",25.3
11,"{CH2CO}-[NMeA]S[W5N]YIIY[NMe2Nal]G[3Pal(6-Ph)][NMeC]-NH2 (thioether N-11; SMILES CC[C@H](C)[C@@H]1NC(=O)[C@H](Cc2ccc(O)cc2)NC(=O)[C@H](Cc2c[nH]c3ccncc23)NC(=O)[C@H](CO)NC(=O)[C@H](C)N(C)C(=O)CSC[C@@H](C(N)=O)N(C)C(=O)[C@H](Cc2ccc(-c3ccccc3)nc2)NC(=O)CNC(=O)[C@H](Cc2ccc3ccccc3c2)N(C)C(=O)[C@H](Cc2ccc(O)cc2)NC(=O)[C@H]([C@@H](C)CC)NC1=O, 11 residues) [Macrocyclic peptide of Example 2-41 (SEQ ID No. 68)]",58.5
